Laboratory results taken from the supplement of paper PMC10567573.

B1: C9orf25 (parent)
chain: LARKGSLKNGSMGSPVNQQPKKNN

Variants of: B1
Assay: protein stability index of a GFP-peptide fusion (GPS, HEK-293T) (PSI 1-6); higher = more stable
Conditions: c terminus: a fixed tail appended
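Note: lentivirally expressed fusions sorted by FACS into six bins by GFP to DsRed ratio, PSI derived from sequencing read proportions per bin multiplied by bin number.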

Variant	protein stability index
LARKGSLKWGSMGSPVNQQPKKNN [N9W]	3.21
LARKGSLKYGSMGSPVNQQPKKNN [N9Y]	4.64
LARKGSLKNASMGSPVNQQPKKNN [G10A]	4.83
LARKGSLKNCSMGSPVNQQPKKNN [G10C]	4.33
LARKGSLKNDSMGSPVNQQPKKNN [G10D]	4.61
LARKGSLKNESMGSPVNQQPKKNN [G10E]	5.04
LARKGSLKNFSMGSPVNQQPKKNN [G10F]	4.25
LARKGSLKNHSMGSPVNQQPKKNN [G10H]	4.67
LARKGSLKNISMGSPVNQQPKKNN [G10I]	4.76
LARKGSLKNKSMGSPVNQQPKKNN [G10K]	4.35
LARKGSLKNLSMGSPVNQQPKKNN [G10L]	4.65
LARKGSLKNMSMGSPVNQQPKKNN [G10M]	4.85
LARKGSLKNNSMGSPVNQQPKKNN [G10N]	4.99
LARKGSLKNPSMGSPVNQQPKKNN [G10P]	4.86
LARKGSLKNQSMGSPVNQQPKKNN [G10Q]	4.34
LARKGSLKNRSMGSPVNQQPKKNN [G10R]	4.12
LARKGSLKNSSMGSPVNQQPKKNN [G10S]	4.14
LARKGSLKNTSMGSPVNQQPKKNN [G10T]	4.81
LARKGSLKNVSMGSPVNQQPKKNN [G10V]	4
LARKGSLKNWSMGSPVNQQPKKNN [G10W]	3.89
LARKGSLKNYSMGSPVNQQPKKNN [G10Y]	4.35
LARKGSLKNGAMGSPVNQQPKKNN [S11A]	4.44
LARKGSLKNGCMGSPVNQQPKKNN [S11C]	4.5
LARKGSLKNGDMGSPVNQQPKKNN [S11D]	4.8

Variant	protein stability index
LARKGSLKNGEMGSPVNQQPKKNN [S11E]	4.96
LARKGSLKNGFMGSPVNQQPKKNN [S11F]	4.15
LARKGSLKNGGMGSPVNQQPKKNN [S11G]	5.27
LARKGSLKNGHMGSPVNQQPKKNN [S11H]	4.15
LARKGSLKNGIMGSPVNQQPKKNN [S11I]	4.41
LARKGSLKNGKMGSPVNQQPKKNN [S11K]	4.7
LARKGSLKNGLMGSPVNQQPKKNN [S11L]	4.19
LARKGSLKNGMMGSPVNQQPKKNN [S11M]	4.22
LARKGSLKNGNMGSPVNQQPKKNN [S11N]	4.88
LARKGSLKNGPMGSPVNQQPKKNN [S11P]	4.67
LARKGSLKNGQMGSPVNQQPKKNN [S11Q]	4.29
LARKGSLKNGRMGSPVNQQPKKNN [S11R]	4.61
LARKGSLKNGTMGSPVNQQPKKNN [S11T]	4.81
LARKGSLKNGVMGSPVNQQPKKNN [S11V]	4.71
LARKGSLKNGWMGSPVNQQPKKNN [S11W]	4.45
LARKGSLKNGYMGSPVNQQPKKNN [S11Y]	4.35
LARKGSLKNGSAGSPVNQQPKKNN [M12A]	4.42
LARKGSLKNGSCGSPVNQQPKKNN [M12C]	4.58
LARKGSLKNGSDGSPVNQQPKKNN [M12D]	5.06
LARKGSLKNGSEGSPVNQQPKKNN [M12E]	5.29
LARKGSLKNGSFGSPVNQQPKKNN [M12F]	4.56
LARKGSLKNGSGGSPVNQQPKKNN [M12G]	4.49
LARKGSLKNGSHGSPVNQQPKKNN [M12H]	4.42
LARKGSLKNGSIGSPVNQQPKKNN [M12I]	4.42

Variant	protein stability index
LARKGSLKNGSKGSPVNQQPKKNN [M12K]	5.15
LARKGSLKNGSLGSPVNQQPKKNN [M12L]	4.44
LARKGSLKNGSNGSPVNQQPKKNN [M12N]	4.43
LARKGSLKNGSPGSPVNQQPKKNN [M12P]	4.84
LARKGSLKNGSQGSPVNQQPKKNN [M12Q]	4.4
LARKGSLKNGSRGSPVNQQPKKNN [M12R]	4.7
LARKGSLKNGSSGSPVNQQPKKNN [M12S]	4.94
LARKGSLKNGSTGSPVNQQPKKNN [M12T]	4.74
LARKGSLKNGSVGSPVNQQPKKNN [M12V]	4.98
LARKGSLKNGSWGSPVNQQPKKNN [M12W]	4.11
LARKGSLKNGSYGSPVNQQPKKNN [M12Y]	4.4
LARKGSLKNGSMASPVNQQPKKNN [G13A]	4.79
LARKGSLKNGSMCSPVNQQPKKNN [G13C]	5.04
LARKGSLKNGSMDSPVNQQPKKNN [G13D]	4.64
LARKGSLKNGSMESPVNQQPKKNN [G13E]	5.23
LARKGSLKNGSMFSPVNQQPKKNN [G13F]	4.06
LARKGSLKNGSMHSPVNQQPKKNN [G13H]	4.58
LARKGSLKNGSMISPVNQQPKKNN [G13I]	4.72
LARKGSLKNGSMKSPVNQQPKKNN [G13K]	4.28
LARKGSLKNGSMLSPVNQQPKKNN [G13L]	4.92
LARKGSLKNGSMMSPVNQQPKKNN [G13M]	4.44
LARKGSLKNGSMNSPVNQQPKKNN [G13N]	4.97
LARKGSLKNGSMPSPVNQQPKKNN [G13P]	4.33
LARKGSLKNGSMQSPVNQQPKKNN [G13Q]	4.99

Variant	protein stability index
LARKGSLKNGSMRSPVNQQPKKNN [G13R]	4.36
LARKGSLKNGSMSSPVNQQPKKNN [G13S]	3.98
LARKGSLKNGSMTSPVNQQPKKNN [G13T]	4.79
LARKGSLKNGSMVSPVNQQPKKNN [G13V]	4.69
LARKGSLKNGSMWSPVNQQPKKNN [G13W]	3.66
LARKGSLKNGSMYSPVNQQPKKNN [G13Y]	4.44
LARKGSLKNGSMGAPVNQQPKKNN [S14A]	4.73
LARKGSLKNGSMGCPVNQQPKKNN [S14C]	4.06
LARKGSLKNGSMGDPVNQQPKKNN [S14D]	4.96
LARKGSLKNGSMGEPVNQQPKKNN [S14E]	4.75
LARKGSLKNGSMGFPVNQQPKKNN [S14F]	4.3
LARKGSLKNGSMGGPVNQQPKKNN [S14G]	4.8
LARKGSLKNGSMGHPVNQQPKKNN [S14H]	4.96
LARKGSLKNGSMGIPVNQQPKKNN [S14I]	4.62
LARKGSLKNGSMGKPVNQQPKKNN [S14K]	4.83
LARKGSLKNGSMGLPVNQQPKKNN [S14L]	4.5
LARKGSLKNGSMGMPVNQQPKKNN [S14M]	4.97
LARKGSLKNGSMGNPVNQQPKKNN [S14N]	4.81
LARKGSLKNGSMGPPVNQQPKKNN [S14P]	5.02
LARKGSLKNGSMGQPVNQQPKKNN [S14Q]	4.74
LARKGSLKNGSMGRPVNQQPKKNN [S14R]	4.23
LARKGSLKNGSMGTPVNQQPKKNN [S14T]	4.42
